# Source: publication PMC7755208, “Design of novel granulopoietic proteins by topological rescaffolding” (PLoS Biology, 2020)
# T1: recombinant human G-CSF receptor (R&D systems 381-GR-050/CF) (human, UniProt Q99062 25-333)
# T1 construct: granulocyte colony-stimulating factor receptor, human, recombinant; As recalled, this catalogue item is a soluble extracellular form of the receptor; also called rhG-CSFR; granulocyte colony-stimulating factor receptor; source: bought: R&D systems 381-GR-050/CF
# T1 sequence: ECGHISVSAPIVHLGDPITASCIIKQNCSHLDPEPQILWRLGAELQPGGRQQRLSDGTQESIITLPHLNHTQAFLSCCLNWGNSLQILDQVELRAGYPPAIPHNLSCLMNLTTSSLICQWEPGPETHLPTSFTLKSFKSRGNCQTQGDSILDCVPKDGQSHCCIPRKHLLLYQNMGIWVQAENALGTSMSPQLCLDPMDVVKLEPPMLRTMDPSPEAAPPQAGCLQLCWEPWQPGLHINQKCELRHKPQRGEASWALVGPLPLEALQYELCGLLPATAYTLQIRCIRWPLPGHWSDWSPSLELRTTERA
# B1: recombinant human granulocyte colony-stimulating factor (USP RS Filgrastim) (ligand, UniProt P09919-2 31-204, looked up)
# chain: TPLGPASSLPQSFLLKCLEQVRKIQGDGAALQEKLCATYKLCHPEELVLLGHSLGIPWAPLSSCPSQALQLAGCLSQLHSGLFLYQGLLQALEGISPELGPTLDTLQLDVADFATTIWQQMEELGMAPALQPTQGAMPAFASAFQRRAGGVLVASHLQSFLEVSYRVLRHLAQP
# notes: granulocyte colony-stimulating factor, human, as filgrastim; printed size 19 kDa; The SPR methods name filgrastim; also called rhG-CSF; G-CSF; source: bought: USP RS Filgrastim, Sigma-Aldrich 1270435
# What was measured:
# [1] = target: T1, recombinant human G-CSF receptor (R&D …); assay: SPR; Biacore X100, multi-cycle kinetics; G-CSFR immobilised on a CM5 chip by amine coupling; analytes in 10 mM HEPES pH 7.4, 150 mM NaCl, 3.4 mM EDTA, 0.005% Tween-20; 25°C, 30 uL/min; 1:1 model, ka and kd from a linear fit of kobs against concentration; settings: both partners purified
# [2] = target: T1, recombinant human G-CSF receptor (R&D …); assay: as above; settings: both partners purified; remark: listed apart in the source
binder,measurement,setting,value
B1,Kd,[1],1.4 nM
same,Kd,[2],1.1 nM
same,koff,[2],0.00049 s⁻¹
same,kon,[2],300000 M⁻¹ s⁻¹
